The experiment deals with YB1 (UniProt P67809). Nature of the experiment: reciprocal co-IP (anti-YB1, anti-WAVE3), blot.

This is an account of results in paper PMC7887190.

Consider WAVE3 (from UniProt Q9UPY6) W3-Y4F, for which the “binding against the reference” value (reference: wild-type WAVE3 (W3-WT), sites Y151,Y248,Y337,Y486) is recorded as “lost”.

“WAVE3 proline-rich domain (PRD) (from UniProt Q9UPY6) PRD-DM (Y248F/Y337F)”: the “binding against the reference” value (reference: PRD-WT (GFP fusion), sites Y248,Y337) is reported as “weaker”.
